Here are results for 1 substance from paper PMC9145999.

The target of the assay is main protease from canine coronavirus (CCoV M^pro) (canine coronavirus). Description: crystal structure; CCoV M^pro incubated with two-fold molar excess of GC376 at 4 °C for 1 h; crystals from 0.2 M sodium citrate, 0.1 M Bis Tris propane 7.0, 25% w/v PEG 3350 at 20 °C; 2.75 Å, space group C2, eight protomers in the asymmetric unit.

As a reminder, the stoichiometry N is the number of molecules, sites or subunits per partner or assembly. On to “main protease from canine coronavirus (CCoV M^pro) (enzyme)”, for which the stoichiometry N was 2.
